Assay results as given in US20060018915A1 (EPIMUNNE, published 2006).

What was measured:
Assay in all cases: HLA binding, candidate-epitope table; assay not described
A*0101 = biological target: T1, A*0101 (human, UniProt P61769 21-119)
T1 construct: MHC class I molecule; form in the assay not described; also called HLA-A*0101

A*3101 = biological target: T2, A*3101 (human, UniProt P61769 21-119, limits assumed)
T2 construct: MHC class I molecule; form in the assay not described; also called HLA-A*3101
T2 sequence (P61769 21-119 limits assumed, chain 2 of 2, other chains not shown): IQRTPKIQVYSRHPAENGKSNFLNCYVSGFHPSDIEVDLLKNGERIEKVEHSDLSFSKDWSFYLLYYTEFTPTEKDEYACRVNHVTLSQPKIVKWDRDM

A*6801 = biological target: T3, A*6801 (human, UniProt P61769 21-119, limits assumed)
T3 construct: MHC class I molecule; form in the assay not described; also called HLA-A*6801
T3 sequence (P61769 21-119 limits assumed, chain 2 of 2, other chains not shown): as above

A*0301 = biological target: T4, A*0301 (human, UniProt P61769 21-119)
T4 construct: MHC class I molecule; form in the assay not described; also called HLA-A*0301
T4 sequence (P61769 21-119 limits assumed, chain 2 of 2, other chains not shown): as above

T1 sequence (P61769 21-119 limits assumed, chain 2 of 2, other chains not shown): as above

Row | Binder | IC50 (A*0101) | IC50 (A*3101) | IC50 (A*6801) | IC50 (A*0301)
1 | GSDCTTIHYNY (also called 52.0136) [p53.226] | 68 nM |  |  | 
2 | VVFGILIKR (also called 1095.51) [Her2/neu.669] |  | 13 nM | 4 nM | 100 nM
